Laboratory results taken from the RNAGym collection of RNA variant scans (doi:10.7554/elife.80360).

B1: Twister Ribozyme (parent)
chain: AACACUGCCAAUGCCGGUCCCAAGCCCGGAUAAAAGUGGAGGGGGCGG

Variants of: B1
Test: self-cleavage, relative activity (ratio to wild type); higher = more cleavage; co-transcriptional

Row | Variant | self-cleavage
1 | AACACUGCCAAUGCCGAUCCCAAGCCCGGAUGAAAGUGGAGGGGGCGG [G17A A32G] | 0.6
2 | AACACUGCCAAUGCCGAUCCCAAGCCCGGAUCAAAGUGGAGGGGGCGG [G17A A32C] | 0.303
3 | AACACUGCCAAUGCCGAUCCCAAGCCCGGAUUAAAGUGGAGGGGGCGG [G17A A32U] | 0.476
4 | AACACUGCCAAUGCCUGUCCCAAGCCCGGAUAAAAGUGGAGGGGACGG [G16U G45A] | 0.608
5 | AACACUGCCAAUGCCUGCCCCAAGCCCGGAUAAAAGUGGAGGGGGCGG [G16U U18C] | 0.351
6 | AACACUGCCAAUGCCGAUCCCAAGCCCGGCUAAAAGUGGAGGGGGCGG [G17A A30C] | 0.275
7 | AACACUGCCAAUGCCGAUCCCAAGCCCGGAUAAAAGUGGAAGGGGCGG [G17A G41A] | 0.148
8 | AACACUGCCAAUGCCGAUCCCAAGCCCGGAUAAAAGUGGAUGGGGCGG [G17A G41U] | 0.169
9 | AACACUGCCAAUGCCGAUCCCAAGCCCAGAUAAAAGUGGAGGGGGCGG [G17A G28A] | 0.296
10 | AACACUGCCAAUGCCGAUCCCAAGCCCCGAUAAAAGUGGAGGGGGCGG [G17A G28C] | 0.393
11 | AACACUGCCAAUGCCGAUCCCAAGCCAGGAUAAAAGUGGAGGGGGCGG [G17A C27A] | 0.221
12 | AACACUGCCAAUGCCGAUCCCAAGCCCGGAUAAAAGUGGAGGGGGAGG [G17A C46A] | 0.322
13 | AACACUGCCAAUGCCGAUCCCAAGCCCGGAUAAAAGUGGAGGGGGUGG [G17A C46U] | 0.774
14 | AACACUGCCAAUGCCGAUCCCAAGCCCGGAUAAAAGUGGAGGGGGGGG [G17A C46G] | 0.592
15 | AACACUGCCAAUGCCGAUCCCAAGCUCGGAUAAAAGUGGAGGGGGCGG [G17A C26U] | 0.923
16 | AACACUGCCAAUGCCGAUCCCACGCCCGGAUAAAAGUGGAGGGGGCGG [G17A A23C] | 0.0909
17 | AACACUGCCAAUGCCGAUCCCAUGCCCGGAUAAAAGUGGAGGGGGCGG [G17A A23U] | 0.28
18 | AACACUGCCAAUGCCGAUCCCAGGCCCGGAUAAAAGUGGAGGGGGCGG [G17A A23G] | 0.0743
19 | AACACUGCCAAUGCCGAUCCCAAGCCCGGAUAAAAGUGAAGGGGGCGG [G17A G39A] | 0.153
20 | AACACUGCCAAUGCCGAUCCCAAGCCCGGAUAACAGUGGAGGGGGCGG [G17A A34C] | 0.0806
21 | AACACUGCCAAUGCCGAUCACAAGCCCGGAUAAAAGUGGAGGGGGCGG [G17A C20A] | 0.0884
22 | AACACUGCCAAUGCCGAUCGCAAGCCCGGAUAAAAGUGGAGGGGGCGG [G17A C20G] | 0.0402
23 | AACACUGCCAAUGCCGAUCCCAAGCCCGGAUAAAAGUAGAGGGGGCGG [G17A G38A] | 0.498
24 | AACACUGCCAAUGCCGAUCCCAAGCCCGGAUAAAAGUGGAGGGGGCGG [G17A] | 0.783
25 | AACACUGCCAAUGCCUGUCCCAAGCCCGGAUAAAAGUGGAGGGCGCGG [G16U G44C] | 1.05
26 | AACACUGCCAAUGCCUGUCCCAAGCCCGGAUAAAAGUGGAGGGUGCGG [G16U G44U] | 1.14
27 | AACACUGCCAAUGCCUGUCCCAAGCCCGGAUAAAAGAGGAGGGGGCGG [G16U U37A] | 0.436

Row | Variant | self-cleavage
28 | AACACUGCCAAUGCCUGUCCCAAGCCCGGAUAAAAGGGGAGGGGGCGG [G16U U37G] | 0.409
29 | AACACUGCCAAUGCCGAUCCAAAGCCCGGAUAAAAGUGGAGGGGGCGG [G17A C21A] | 0.101
30 | AACACUGCCAAUGCCGAUCCUAAGCCCGGAUAAAAGUGGAGGGGGCGG [G17A C21U] | 0.0984
31 | AACACUGCCAAUGCCUGUCCCAAGCCCGGAUAAAAGUGGAGGGGGCCG [G16U G47C] | 0.426
32 | AACACUGCCAAUGCCGAUCCCAAGCCCGCAUAAAAGUGGAGGGGGCGG [G17A G29C] | 0.222
33 | AACACUGCCAAUGCCGAUCCCAAGCCCGUAUAAAAGUGGAGGGGGCGG [G17A G29U] | 0.336
34 | AACACUGCCAAUGCCGAUCCCAAGCCCGAAUAAAAGUGGAGGGGGCGG [G17A G29A] | 0.308
35 | AACACUGCCAAUGCCGAUCCCAAGCCCGGAUAUAAGUGGAGGGGGCGG [G17A A33U] | 0.614
36 | AACACUGCCAAUGCCGAUCCCAAGCCCGGAUACAAGUGGAGGGGGCGG [G17A A33C] | 0.384
37 | AACACUGCCAAUGCCGAUCCCAAGCCCGGAUAAAAGUGGAGGAGGCGG [G17A G43A] | 0.156
38 | AACACUGCCAAUGCCGAUCCCAAUCCCGGAUAAAAGUGGAGGGGGCGG [G17A G24U] | 0.0891
39 | AACACUGCCAAUGCCGAUCCCAACCCCGGAUAAAAGUGGAGGGGGCGG [G17A G24C] | 0.128
40 | AACACUGCCAAUGCCGAUUCCAAGCCCGGAUAAAAGUGGAGGGGGCGG [G17A C19U] | 0.281
41 | AACACUGCCAAUGCCGAUGCCAAGCCCGGAUAAAAGUGGAGGGGGCGG [G17A C19G] | 0.14
42 | AACACUGCCAAUGCCGAUACCAAGCCCGGAUAAAAGUGGAGGGGGCGG [G17A C19A] | 0.104
43 | AACACUGCCAAUGCCUGUCCCAAGCCCGGAAAAAAGUGGAGGGGGCGG [G16U U31A] | 1.05
44 | AACACUGCCAAUGCCUGUCCCAAGCCCGGACAAAAGUGGAGGGGGCGG [G16U U31C] | 0.725
45 | AACACUGCCAAUGCCUGUCCCAAGCCCGGAUAAAAGUGGAGGGGGCGC [G16U G48C] | 1.06
46 | AACACUGCCAAUGCCUGUCCCAAGCCCGGAUAAAAGUGGAGGGGGCGU [G16U G48U] | 0.843
47 | AACACUGCCAAUGCCUGUCCCAAGCCCGGAUAAAAGUGGAGGGGGCGA [G16U G48A] | 0.898
48 | AACACUGCCAAUGCCGAUCCCAAGCCCGGAUAAAAGUGGAGUGGGCGG [G17A G42U] | 0.135
49 | AACACUGCCAAUGCCGAUCCCAAGCCCGGAUAAAAGUGGAGCGGGCGG [G17A G42C] | 0.192
50 | AACACUGCCAAUGCCGAUCCCAAGCCCGGAUAAAGGUGGAGGGGGCGG [G17A A35G] | 0.262
51 | AACACUGCCAAUGCCGAUCCCAAGCCCGGAUAAACGUGGAGGGGGCGG [G17A A35C] | 0.637
52 | AACACUGCCAAUGCCGAUCCCAAGCCCGGAUAAAAAUGGAGGGGGCGG [G17A G36A] | 0.141
53 | AACACUGCCAAUGCCGAUCCCAAGCCCGGAUAAAAUUGGAGGGGGCGG [G17A G36U] | 0.108
54 | AACACUGCCAAUGCCGAUCCCAAGCCCGGAUAAAACUGGAGGGGGCGG [G17A G36C] | 0.118
